Numbered stars: 1 amine (or outer) side, 2 acyl side, 3 side chain; on linkers, the order of the positions; unused ones are H or OH. * marks the point of attachment. C20 diacid = O=C(O)CCCCCCCCCCCCCCCCCCC(=O)*; C18 diacid = O=C(O)CCCCCCCCCCCCCCCCC(=O)*; γGlu = O=C(O)[C@H](CCC(=O)[*:2])N[*:1]

In assay [1] the target is T1, human amylin receptor (human calcitonin receptor + human RAMP3) (human) (UniProt P30988).
T1 sequence (looked up) 1: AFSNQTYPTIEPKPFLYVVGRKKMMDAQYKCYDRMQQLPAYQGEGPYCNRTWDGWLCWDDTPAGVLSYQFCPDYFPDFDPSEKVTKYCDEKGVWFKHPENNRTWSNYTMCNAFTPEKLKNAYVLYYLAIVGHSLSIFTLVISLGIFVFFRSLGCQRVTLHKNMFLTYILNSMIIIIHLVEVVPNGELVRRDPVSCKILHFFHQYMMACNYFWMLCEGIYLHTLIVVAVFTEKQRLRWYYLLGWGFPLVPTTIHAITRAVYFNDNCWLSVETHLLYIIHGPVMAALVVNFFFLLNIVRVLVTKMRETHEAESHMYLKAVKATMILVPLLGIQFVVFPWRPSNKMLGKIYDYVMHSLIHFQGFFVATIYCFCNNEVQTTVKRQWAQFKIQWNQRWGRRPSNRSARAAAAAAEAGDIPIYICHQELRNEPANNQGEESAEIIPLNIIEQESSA
T1 sequence (looked up) 2: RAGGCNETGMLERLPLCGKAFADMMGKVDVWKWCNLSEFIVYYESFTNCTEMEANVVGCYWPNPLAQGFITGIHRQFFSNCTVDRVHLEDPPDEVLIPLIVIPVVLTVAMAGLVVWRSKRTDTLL
As to the kind of experiment: whole-cell competition vs 125I-rat amylin (Assay Va).

The target in assay [2] is rat calcitonin receptor (rat) (UniProt P32214). In words: SPA competition vs 125I-calcitonin, membranes with rat CTR (Assay VIII).
The target of assay [3] is rat amylin receptor (rat calcitonin receptor with rat RAMP 3) (rat) (UniProt P32214). As to the kind of experiment: SPA competition vs 125I-rat amylin, membranes with rat CTR + rat RAMP3 (Assay VI).

As for “[N-terminal(C18 diacid-gGlu-2xOEG), des1, 4G, 9V, 15Q, 21Q, 23Y, 30S, 31G, 32T, 33Y]mimylin (peptide)”, the IC50 in assay [1] was 0.801 nM; in assay [2], 0.032 nM; in assay [3] it was 0.357 nM.

B1: [N-terminal(C18 diacid-gGlu), des1, 6T, 9V, 14T, 21E, 30T, 31G, 32T]mimylin (peptide)
peptide: {C18 diacid-γGlu}-ASELTTAVLGRLTAELHELETLPRTETGTGTP-NH2
SMILES: CC(C)C[C@H](NC(=O)[C@H](CCC(=O)O)NC(=O)[C@H](C)NC(=O)[C@@H](NC(=O)[C@H](CC(C)C)NC(=O)[C@H](CCCNC(=N)N)NC(=O)CNC(=O)[C@H](CC(C)C)NC(=O)[C@@H](NC(=O)[C@H](C)NC(=O)[C@@H](NC(=O)[C@@H](NC(=O)[C@H](CC(C)C)NC(=O)[C@H](CCC(=O)O)NC(=O)[C@H](CO)NC(=O)[C@H](C)NC(=O)CC[C@H](NC(=O)CCCCCCCCCCCCCCCCC(=O)O)C(=O)O)[C@@H](C)O)[C@@H](C)O)C(C)C)[C@@H](C)O)C(=O)N[C@@H](Cc1c[nH]cn1)C(=O)N[C@@H](CCC(=O)O)C(=O)N[C@@H](CC(C)C)C(=O)N[C@@H](CCC(=O)O)C(=O)N[C@H](C(=O)N[C@@H](CC(C)C)C(=O)N1CCC[C@H]1C(=O)N[C@@H](CCCNC(=N)N)C(=O)N[C@H](C(=O)N[C@@H](CCC(=O)O)C(=O)N[C@H](C(=O)NCC(=O)N[C@H](C(=O)NCC(=O)N[C@H](C(=O)N1CCC[C@H]1C(N)=O)[C@@H](C)O)[C@@H](C)O)[C@@H](C)O)[C@@H](C)O)[C@@H](C)O
With B1, the IC50 was found to be 22.9 nM in assay [1], 0.072 nM in assay [2] and 0.162 nM in assay [3].

B2: [N-terminal(C20 diacid-gGlu), des1, 4G, 15Q, 21Q, 23Y, 25H, 30S, 31G, 32T, 33Y]mimylin (peptide)
peptide: {C20 diacid-γGlu}-ASGLSTAALGRLSQELHELQTYPHTETGSGTY-NH2
SMILES: CC(C)C[C@H](NC(=O)CNC(=O)[C@H](CO)NC(=O)[C@H](C)NC(=O)CC[C@H](NC(=O)CCCCCCCCCCCCCCCCCCC(=O)O)C(=O)O)C(=O)N[C@@H](CO)C(=O)N[C@H](C(=O)N[C@@H](C)C(=O)N[C@@H](C)C(=O)N[C@@H](CC(C)C)C(=O)NCC(=O)N[C@@H](CCCNC(=N)N)C(=O)N[C@@H](CC(C)C)C(=O)N[C@@H](CO)C(=O)N[C@@H](CCC(N)=O)C(=O)N[C@@H](CCC(=O)O)C(=O)N[C@@H](CC(C)C)C(=O)N[C@@H](Cc1c[nH]cn1)C(=O)N[C@@H](CCC(=O)O)C(=O)N[C@@H](CC(C)C)C(=O)N[C@@H](CCC(N)=O)C(=O)N[C@H](C(=O)N[C@@H](Cc1ccc(O)cc1)C(=O)N1CCC[C@H]1C(=O)N[C@@H](Cc1c[nH]cn1)C(=O)N[C@H](C(=O)N[C@@H](CCC(=O)O)C(=O)N[C@H](C(=O)NCC(=O)N[C@@H](CO)C(=O)NCC(=O)N[C@H](C(=O)N[C@@H](Cc1ccc(O)cc1)C(N)=O)[C@@H](C)O)[C@@H](C)O)[C@@H](C)O)[C@@H](C)O)[C@@H](C)O
Regarding B2, the IC50 was found to be 0.142 nM in assay [1], 0.031 nM in assay [2] and 0.026 nM in assay [3].

B3: [N-terminal(C20 diacid-gGlu), des1, 9S, 21S, 23Y, 30S, 31G, 33Y]mimylin (peptide)
peptide: {C20 diacid-γGlu}-ASELSTASLGRLSAELHELSTYPRTETGSGSY-NH2
SMILES: CC(C)C[C@H](NC(=O)[C@H](CO)NC(=O)[C@H](C)NC(=O)[C@@H](NC(=O)[C@H](CO)NC(=O)[C@H](CC(C)C)NC(=O)[C@H](CCC(=O)O)NC(=O)[C@H](CO)NC(=O)[C@H](C)NC(=O)CC[C@H](NC(=O)CCCCCCCCCCCCCCCCCCC(=O)O)C(=O)O)[C@@H](C)O)C(=O)NCC(=O)N[C@@H](CCCNC(=N)N)C(=O)N[C@@H](CC(C)C)C(=O)N[C@@H](CO)C(=O)N[C@@H](C)C(=O)N[C@@H](CCC(=O)O)C(=O)N[C@@H](CC(C)C)C(=O)N[C@@H](Cc1c[nH]cn1)C(=O)N[C@@H](CCC(=O)O)C(=O)N[C@@H](CC(C)C)C(=O)N[C@@H](CO)C(=O)N[C@H](C(=O)N[C@@H](Cc1ccc(O)cc1)C(=O)N1CCC[C@H]1C(=O)N[C@@H](CCCNC(=N)N)C(=O)N[C@H](C(=O)N[C@@H](CCC(=O)O)C(=O)N[C@H](C(=O)NCC(=O)N[C@@H](CO)C(=O)NCC(=O)N[C@@H](CO)C(=O)N[C@@H](Cc1ccc(O)cc1)C(N)=O)[C@@H](C)O)[C@@H](C)O)[C@@H](C)O
On to B3, for which the values for the IC50 in assay [1], in assay [2] and in assay [3] were 3.17 nM, 0.062 nM and 0.046 nM, respectively.

B4: [N-terminal(C20 diacid-gGlu), des1, 23Y, 30S, 31G, 32A]mimylin (peptide)
peptide: {C20 diacid-γGlu}-ASELSTAALGRLSAELHELATYPRTETGSGAP-NH2
SMILES: CC(C)C[C@H](NC(=O)[C@H](C)NC(=O)[C@H](C)NC(=O)[C@@H](NC(=O)[C@H](CO)NC(=O)[C@H](CC(C)C)NC(=O)[C@H](CCC(=O)O)NC(=O)[C@H](CO)NC(=O)[C@H](C)NC(=O)CC[C@H](NC(=O)CCCCCCCCCCCCCCCCCCC(=O)O)C(=O)O)[C@@H](C)O)C(=O)NCC(=O)N[C@@H](CCCNC(=N)N)C(=O)N[C@@H](CC(C)C)C(=O)N[C@@H](CO)C(=O)N[C@@H](C)C(=O)N[C@@H](CCC(=O)O)C(=O)N[C@@H](CC(C)C)C(=O)N[C@@H](Cc1c[nH]cn1)C(=O)N[C@@H](CCC(=O)O)C(=O)N[C@@H](CC(C)C)C(=O)N[C@@H](C)C(=O)N[C@H](C(=O)N[C@@H](Cc1ccc(O)cc1)C(=O)N1CCC[C@H]1C(=O)N[C@@H](CCCNC(=N)N)C(=O)N[C@H](C(=O)N[C@@H](CCC(=O)O)C(=O)N[C@H](C(=O)NCC(=O)N[C@@H](CO)C(=O)NCC(=O)N[C@@H](C)C(=O)N1CCC[C@H]1C(N)=O)[C@@H](C)O)[C@@H](C)O)[C@@H](C)O
As for B4, the IC50 was 2.02 nM in assay [1], 0.039 nM in assay [2] and 0.026 nM in assay [3].

B5: [N-terminal(C20 diacid-gGlu), des1, 4G, 8L, 9V, 15Q, 21Q, 23Y, 30S, 31Q, 32T, 33Y]mimylin (peptide)
peptide: {C20 diacid-γGlu}-ASGLSTLVLGRLSQELHELQTYPRTETGSQTY-NH2
SMILES: CC(C)C[C@H](NC(=O)CNC(=O)[C@H](CO)NC(=O)[C@H](C)NC(=O)CC[C@H](NC(=O)CCCCCCCCCCCCCCCCCCC(=O)O)C(=O)O)C(=O)N[C@@H](CO)C(=O)N[C@H](C(=O)N[C@@H](CC(C)C)C(=O)N[C@H](C(=O)N[C@@H](CC(C)C)C(=O)NCC(=O)N[C@@H](CCCNC(=N)N)C(=O)N[C@@H](CC(C)C)C(=O)N[C@@H](CO)C(=O)N[C@@H](CCC(N)=O)C(=O)N[C@@H](CCC(=O)O)C(=O)N[C@@H](CC(C)C)C(=O)N[C@@H](Cc1c[nH]cn1)C(=O)N[C@@H](CCC(=O)O)C(=O)N[C@@H](CC(C)C)C(=O)N[C@@H](CCC(N)=O)C(=O)N[C@H](C(=O)N[C@@H](Cc1ccc(O)cc1)C(=O)N1CCC[C@H]1C(=O)N[C@@H](CCCNC(=N)N)C(=O)N[C@H](C(=O)N[C@@H](CCC(=O)O)C(=O)N[C@H](C(=O)NCC(=O)N[C@@H](CO)C(=O)N[C@@H](CCC(N)=O)C(=O)N[C@H](C(=O)N[C@@H](Cc1ccc(O)cc1)C(N)=O)[C@@H](C)O)[C@@H](C)O)[C@@H](C)O)[C@@H](C)O)C(C)C)[C@@H](C)O
As for B5, the IC50 in assay [1] is 1.48 nM; in assay [2] it was 0.031 nM; in assay [3], 0.091 nM.

B6: [N-terminal(C20 diacid-gGlu), des1, 9V, 15Q, 21Q, 23Y, 30S, 31G, 32T, 33Y]mimylin (peptide)
peptide: {C20 diacid-γGlu}-ASELSTAVLGRLSQELHELQTYPRTETGSGTY-NH2
SMILES: CC(C)C[C@H](NC(=O)[C@H](CCCNC(=N)N)NC(=O)CNC(=O)[C@H](CC(C)C)NC(=O)[C@@H](NC(=O)[C@H](C)NC(=O)[C@@H](NC(=O)[C@H](CO)NC(=O)[C@H](CC(C)C)NC(=O)[C@H](CCC(=O)O)NC(=O)[C@H](CO)NC(=O)[C@H](C)NC(=O)CC[C@H](NC(=O)CCCCCCCCCCCCCCCCCCC(=O)O)C(=O)O)[C@@H](C)O)C(C)C)C(=O)N[C@@H](CO)C(=O)N[C@@H](CCC(N)=O)C(=O)N[C@@H](CCC(=O)O)C(=O)N[C@@H](CC(C)C)C(=O)N[C@@H](Cc1c[nH]cn1)C(=O)N[C@@H](CCC(=O)O)C(=O)N[C@@H](CC(C)C)C(=O)N[C@@H](CCC(N)=O)C(=O)N[C@H](C(=O)N[C@@H](Cc1ccc(O)cc1)C(=O)N1CCC[C@H]1C(=O)N[C@@H](CCCNC(=N)N)C(=O)N[C@H](C(=O)N[C@@H](CCC(=O)O)C(=O)N[C@H](C(=O)NCC(=O)N[C@@H](CO)C(=O)NCC(=O)N[C@H](C(=O)N[C@@H](Cc1ccc(O)cc1)C(N)=O)[C@@H](C)O)[C@@H](C)O)[C@@H](C)O)[C@@H](C)O
B6: the IC50 stood at 0.278 nM in assay [1], 0.021 nM in assay [2] and 0.146 nM in assay [3].

By IC50 is commonly meant the concentration that gives 50% inhibition.

The values are drawn from patent US20160272683A1 (Novo Nordisk, published 2016).
